Results published in US20100172907A1.

These substances were tested against BSA-conjugated Aβ heptapeptide VFFAEDC (assay: ELISA).

Substance	OD ratio 18-23/BSA	Peptide-ratio 18-23/2-7
4G8 (antibody)	20	20
6E10 (antibody)	1	0.06
AMY-33 (antibody)	1	0.06

These substances were tested against BSA-conjugated Aβ heptapeptide FFAEDVC (assay: ELISA).

Substance	OD ratio 19-24/BSA	Peptide-ratio 19-24/2-7
4G8 (antibody)	1	1
6E10 (antibody)	1	0.06
AMY-33 (antibody)	3	0.19

These substances were tested against BSA-conjugated Aβ heptapeptide LVFFAEC (assay: ELISA).

Substance	OD ratio 17-22/BSA	Peptide-ratio 17-22/2-7
4G8 (antibody)	23	23
6E10 (antibody)	1	0.06
AMY-33 (antibody)	2	0.13

The substances below were run against BSA-conjugated Aβ heptapeptide AEFRHDC (assay: ELISA).

Substance	OD ratio 2-7/BSA
4G8 (antibody)	1
6E10 (antibody)	18
AMY-33 (antibody)	16
